These results are taken from US20210196796A1 (SYNTHEKINE, published 2021).

T1: orthogonal hCD122 receptor (hoRb), hCD122 with H133D and Y134F (human, UniProt P14784 27-550)
T1 sequence: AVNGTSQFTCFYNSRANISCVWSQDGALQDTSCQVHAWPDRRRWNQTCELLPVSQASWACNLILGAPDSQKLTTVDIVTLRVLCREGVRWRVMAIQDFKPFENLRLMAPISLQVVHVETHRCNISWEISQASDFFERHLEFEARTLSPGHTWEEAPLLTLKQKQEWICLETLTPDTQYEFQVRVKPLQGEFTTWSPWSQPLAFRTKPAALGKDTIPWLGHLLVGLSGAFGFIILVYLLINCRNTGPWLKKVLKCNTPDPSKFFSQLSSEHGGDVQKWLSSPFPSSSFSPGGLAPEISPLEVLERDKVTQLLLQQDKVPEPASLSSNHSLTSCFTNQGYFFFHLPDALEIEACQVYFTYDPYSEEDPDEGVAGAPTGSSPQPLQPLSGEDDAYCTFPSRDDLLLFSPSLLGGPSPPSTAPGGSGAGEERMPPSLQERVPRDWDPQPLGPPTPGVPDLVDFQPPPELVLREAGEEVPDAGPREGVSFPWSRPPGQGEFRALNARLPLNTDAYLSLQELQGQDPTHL

B1: V91K, SQVLKA (ligand)
chain: APTSSSTKKTQLQLSQLLVLLKAILNGINNYKNPKLTRMLTFKFYMPKKATELKHLQCLEEELKPLEEVLNLAQSKNFHLRPRDLISNINKIVLELKGSETTFMCEYADETATIVEFLNRWITFCQSIISTLT
B2: Q126H, SQVLKA (ligand)
chain: B1 chain with K91V, Q126H
B3: L14M, SQVLKA (ligand)
chain: B1 chain with L14M, K91V
B4: K97Q, SQVLKA (ligand)
chain: B1 chain with K91V, K97Q
B5: Q126K, SQVLKA (ligand)
chain: B1 chain with K91V, Q126K
B6: T113N, SQVLKA (ligand)
chain: B1 chain with K91V, T113N
B7: I92F, SQVLKA (ligand)
chain: B1 chain with K91V, I92F
B8: M104A, SQVLKA (ligand)
chain: B1 chain with K91V, M104A
B9: C125A, SQVLKA (ligand)
chain: B1 chain with K91V, C125A
B10: Q126M, SQVLKA (ligand)
chain: B1 chain with K91V, Q126M
B11: D109C, SQVLKA (ligand)
chain: B1 chain with K91V, D109C
B12: C125S, SQVLKA (ligand)
chain: B1 chain with K91V, C125S

Changes are numbered by the printed parent chain. Names may count otherwise.
Wherever Relative Proliferation Fold Change 3F8 1:10 is given: reference of the scale not given here.
Wherever Relative Proliferation Fold Change 3F8 1:2 is given: reference of the scale not given here.
Wherever Relative Proliferation Fold Change 3F8 1:50 is given: reference of the scale not given here.
Wherever Relative Proliferation Fold Change NKL 1:10 is given: reference of the scale not given here.
Wherever Relative Proliferation Fold Change NKL 1:2 is given: reference of the scale not given here.
Wherever Relative Proliferation Fold Change NKL 1:50 is given: reference of the scale not given here.

The target of one test is T1, orthogonal hCD122 receptor (hoRb), …. Put plainly: cell-based or functional assay.
Turning to B1, the “NKL Ortho Proliferation Signal 1:2” value came out at 5180, the “NKL Ortho Proliferation Signal 1:10” value was determined as 5210, the “NKL Ortho Proliferation Signal 1:50” value was found to be 4940 and the “Relative Proliferation Fold Change NKL 1:2” value is 0.74 fold. The “Relative Proliferation Fold Change NKL 1:10” value came out at 0.63 fold and the “Relative Proliferation Fold Change NKL 1:50” value came to 0.53 fold.

In the case of B2, the “NKL Ortho Proliferation Signal 1:2” value came to 43600, the “NKL Ortho Proliferation Signal 1:10” value came to 29000, the “NKL Ortho Proliferation Signal 1:50” value worked out at 15800 and the “Relative Proliferation Fold Change NKL 1:2” value came to 3.64 fold. Besides, the “Relative Proliferation Fold Change NKL 1:10” value turned out to be 1.92 fold and the “Relative Proliferation Fold Change NKL 1:50” value was 1.09 fold.

Take B3: the “NKL Ortho Proliferation Signal 1:2” value was 57200, the “NKL Ortho Proliferation Signal 1:10” value turned out to be 54500, the “NKL Ortho Proliferation Signal 1:50” value stood at 26700 and the “Relative Proliferation Fold Change NKL 1:2” value worked out at 3.76 fold. Besides, the “Relative Proliferation Fold Change NKL 1:10” value worked out at 3.45 fold and the “Relative Proliferation Fold Change NKL 1:50” value stood at 1.98 fold.

On to B4, for which the “NKL Ortho Proliferation Signal 1:2” value turned out to be 53000, the “NKL Ortho Proliferation Signal 1:10” value was 55400, the “NKL Ortho Proliferation Signal 1:50” value stood at 25200 and the “Relative Proliferation Fold Change NKL 1:2” value was determined as 3.29 fold. Besides, the “Relative Proliferation Fold Change NKL 1:10” value came to 3.64 fold and the “Relative Proliferation Fold Change NKL 1:50” value worked out at 1.9 fold.

Take B5: the “NKL Ortho Proliferation Signal 1:2” value was found to be 6510, the “NKL Ortho Proliferation Signal 1:10” value stood at 7930, the “NKL Ortho Proliferation Signal 1:50” value came out at 6980 and the “Relative Proliferation Fold Change NKL 1:2” value turned out to be 0.54 fold. For the same molecule, the “Relative Proliferation Fold Change NKL 1:10” value stood at 0.56 fold and the “Relative Proliferation Fold Change NKL 1:50” value amounted to 0.53 fold.

Take B6: the “NKL Ortho Proliferation Signal 1:2” value was found to be 47400, the “NKL Ortho Proliferation Signal 1:10” value came out at 48800, the “NKL Ortho Proliferation Signal 1:50” value came to 21400 and the “Relative Proliferation Fold Change NKL 1:2” value is 3.71 fold. In addition, the “Relative Proliferation Fold Change NKL 1:10” value was 3.45 fold and the “Relative Proliferation Fold Change NKL 1:50” value is 1.63 fold.

In the case of B7, the “NKL Ortho Proliferation Signal 1:2” value was 32200, the “NKL Ortho Proliferation Signal 1:10” value came to 27000, the “NKL Ortho Proliferation Signal 1:50” value amounted to 12800 and the “Relative Proliferation Fold Change NKL 1:2” value was determined as 2.32 fold. Also, the “Relative Proliferation Fold Change NKL 1:10” value worked out at 1.84 fold and the “Relative Proliferation Fold Change NKL 1:50” value came out at 0.92 fold.

Consider B8, for which the “NKL Ortho Proliferation Signal 1:2” value is 47600, the “NKL Ortho Proliferation Signal 1:10” value was 54800, the “NKL Ortho Proliferation Signal 1:50” value amounted to 29500 and the “Relative Proliferation Fold Change NKL 1:2” value was found to be 3.88 fold. Also, the “Relative Proliferation Fold Change NKL 1:10” value is 3.48 fold and the “Relative Proliferation Fold Change NKL 1:50” value was 2.09 fold.

Turning to B9, the “NKL Ortho Proliferation Signal 1:2” value came out at 42000, the “NKL Ortho Proliferation Signal 1:10” value was found to be 50400, the “NKL Ortho Proliferation Signal 1:50” value amounted to 22800 and the “Relative Proliferation Fold Change NKL 1:2” value came out at 3.95 fold. Also, the “Relative Proliferation Fold Change NKL 1:10” value was found to be 3.6 fold and the “Relative Proliferation Fold Change NKL 1:50” value amounted to 1.95 fold.

Regarding B10, the “NKL Ortho Proliferation Signal 1:2” value stood at 19800, the “NKL Ortho Proliferation Signal 1:10” value stood at 18700, the “NKL Ortho Proliferation Signal 1:50” value was 9760 and the “Relative Proliferation Fold Change NKL 1:2” value is 2 fold. Moreover, the “Relative Proliferation Fold Change NKL 1:10” value came out at 1.29 fold and the “Relative Proliferation Fold Change NKL 1:50” value turned out to be 0.74 fold.

With B11, the “NKL Ortho Proliferation Signal 1:2” value turned out to be 47800, the “NKL Ortho Proliferation Signal 1:10” value came out at 44200, the “NKL Ortho Proliferation Signal 1:50” value turned out to be 20400 and the “Relative Proliferation Fold Change NKL 1:2” value is 4.2 fold. For the same molecule, the “Relative Proliferation Fold Change NKL 1:10” value is 3.22 fold and the “Relative Proliferation Fold Change NKL 1:50” value came to 1.52 fold.

On to B12, for which the “NKL Ortho Proliferation Signal 1:2” value was determined as 48200, the “NKL Ortho Proliferation Signal 1:10” value stood at 59500, the “NKL Ortho Proliferation Signal 1:50” value worked out at 27800 and the “Relative Proliferation Fold Change NKL 1:2” value came out at 4.29 fold. The “Relative Proliferation Fold Change NKL 1:10” value worked out at 4.53 fold and the “Relative Proliferation Fold Change NKL 1:50” value is 2.26 fold.

For a further test the target is unchanged. Kind of test: cell-based or functional assay. This is another data set of the same source.
Regarding B1, the “3F8 Ortho Proliferation Signal 1:2” value worked out at 3720 cts/min, the “3F8 Ortho Proliferation Signal 1:10” value was 992 cts/min, the “3F8 Ortho Proliferation Signal 1:50” value was found to be 804 cts/min and the “Relative Proliferation Fold Change 3F8 1:2” value is 13.4 fold. For the same molecule, the “Relative Proliferation Fold Change 3F8 1:10” value stood at 1.44 fold and the “Relative Proliferation Fold Change 3F8 1:50” value worked out at 1.25 fold.

Consider B2, for which the “3F8 Ortho Proliferation Signal 1:2” value was found to be 36500 cts/min, the “3F8 Ortho Proliferation Signal 1:10” value stood at 38600 cts/min, the “3F8 Ortho Proliferation Signal 1:50” value was 18700 cts/min and the “Relative Proliferation Fold Change 3F8 1:2” value came to 181 fold. Also, the “Relative Proliferation Fold Change 3F8 1:10” value turned out to be 54.1 fold and the “Relative Proliferation Fold Change 3F8 1:50” value amounted to 14.5 fold.

Take B3: the “3F8 Ortho Proliferation Signal 1:2” value was found to be 39800 cts/min, the “3F8 Ortho Proliferation Signal 1:10” value stood at 41500 cts/min, the “3F8 Ortho Proliferation Signal 1:50” value was found to be 18500 cts/min and the “Relative Proliferation Fold Change 3F8 1:2” value is 40.9 fold. Besides, the “Relative Proliferation Fold Change 3F8 1:10” value is 34.1 fold and the “Relative Proliferation Fold Change 3F8 1:50” value came to 12.1 fold.

Turning to B4, the “3F8 Ortho Proliferation Signal 1:2” value came to 35600 cts/min, the “3F8 Ortho Proliferation Signal 1:10” value was 40100 cts/min, the “3F8 Ortho Proliferation Signal 1:50” value came to 19700 cts/min and the “Relative Proliferation Fold Change 3F8 1:2” value is 91.6 fold. In addition, the “Relative Proliferation Fold Change 3F8 1:10” value was found to be 32.5 fold and the “Relative Proliferation Fold Change 3F8 1:50” value was 33.1 fold.

For the molecule B5, the “3F8 Ortho Proliferation Signal 1:2” value was 2720 cts/min, the “3F8 Ortho Proliferation Signal 1:10” value stood at 2490 cts/min, the “3F8 Ortho Proliferation Signal 1:50” value was determined as 964 cts/min and the “Relative Proliferation Fold Change 3F8 1:2” value worked out at 9.18 fold. The “Relative Proliferation Fold Change 3F8 1:10” value came out at 7.29 fold and the “Relative Proliferation Fold Change 3F8 1:50” value was 1.51 fold.

For B6, the “3F8 Ortho Proliferation Signal 1:2” value came to 31600 cts/min, the “3F8 Ortho Proliferation Signal 1:10” value worked out at 33100 cts/min, the “3F8 Ortho Proliferation Signal 1:50” value stood at 13600 cts/min and the “Relative Proliferation Fold Change 3F8 1:2” value is 39.6 fold. For the same molecule, the “Relative Proliferation Fold Change 3F8 1:10” value came to 38.8 fold and the “Relative Proliferation Fold Change 3F8 1:50” value came to 12.7 fold.

For the molecule B7, the “3F8 Ortho Proliferation Signal 1:2” value is 29700 cts/min, the “3F8 Ortho Proliferation Signal 1:10” value is 36300 cts/min, the “3F8 Ortho Proliferation Signal 1:50” value came to 20900 cts/min and the “Relative Proliferation Fold Change 3F8 1:2” value was 80.2 fold. In addition, the “Relative Proliferation Fold Change 3F8 1:10” value came out at 57.6 fold and the “Relative Proliferation Fold Change 3F8 1:50” value is 18.4 fold.

Regarding B8, the “3F8 Ortho Proliferation Signal 1:2” value stood at 29300 cts/min, the “3F8 Ortho Proliferation Signal 1:10” value was 42400 cts/min, the “3F8 Ortho Proliferation Signal 1:50” value turned out to be 27100 cts/min and the “Relative Proliferation Fold Change 3F8 1:2” value is 24.4 fold. In addition, the “Relative Proliferation Fold Change 3F8 1:10” value stood at 37.6 fold and the “Relative Proliferation Fold Change 3F8 1:50” value stood at 39.7 fold.

Regarding B9, the “3F8 Ortho Proliferation Signal 1:2” value worked out at 43700 cts/min, the “3F8 Ortho Proliferation Signal 1:10” value turned out to be 44600 cts/min, the “3F8 Ortho Proliferation Signal 1:50” value turned out to be 24800 cts/min and the “Relative Proliferation Fold Change 3F8 1:2” value was found to be 0.72 fold. Further, the “Relative Proliferation Fold Change 3F8 1:10” value came to 4.37 fold and the “Relative Proliferation Fold Change 3F8 1:50” value amounted to 5.3 fold.

With B10, the “3F8 Ortho Proliferation Signal 1:2” value worked out at 33100 cts/min, the “3F8 Ortho Proliferation Signal 1:10” value worked out at 33200 cts/min, the “3F8 Ortho Proliferation Signal 1:50” value worked out at 17100 cts/min and the “Relative Proliferation Fold Change 3F8 1:2” value turned out to be 154 fold. The “Relative Proliferation Fold Change 3F8 1:10” value was determined as 55.6 fold and the “Relative Proliferation Fold Change 3F8 1:50” value is 31.8 fold.

For the molecule B11, the “3F8 Ortho Proliferation Signal 1:2” value amounted to 29100 cts/min, the “3F8 Ortho Proliferation Signal 1:10” value was 34000 cts/min, the “3F8 Ortho Proliferation Signal 1:50” value was found to be 18600 cts/min and the “Relative Proliferation Fold Change 3F8 1:2” value came to 84 fold. Moreover, the “Relative Proliferation Fold Change 3F8 1:10” value amounted to 51.4 fold and the “Relative Proliferation Fold Change 3F8 1:50” value is 23.2 fold.

For B12, the “3F8 Ortho Proliferation Signal 1:2” value was 36200 cts/min, the “3F8 Ortho Proliferation Signal 1:10” value stood at 45000 cts/min, the “3F8 Ortho Proliferation Signal 1:50” value came out at 26100 cts/min and the “Relative Proliferation Fold Change 3F8 1:2” value turned out to be 140 fold. Further, the “Relative Proliferation Fold Change 3F8 1:10” value came out at 66.6 fold and the “Relative Proliferation Fold Change 3F8 1:50” value came to 26.9 fold.
